The data set deals with the molecule itself. Description: EGS crosslinking of recombinant protein, SDS-PAGE, immunoblot. In general terms: Immunoblotting shows a protein as a band on a membrane.

B1: recombinant ΔC-IKK-γ (1-300) (other, not shown: small tags and cut ends)
chain: MNRHLWKSQLCEMVQPSGGPAADQDVLGEESPLGKPAMLHLPSEQGAPETLQRCLEENQELRDAIRQSNQILRERCEELLHFQASQREEKEFLMCKFQEARKLVERLGLEKLDLKRQKEQALREVEHLKRCQQQMAEDKASVKAQVTSLLGELQESQSRLEAATKECQALEGRARAASEQARQLESEREALQQQHSVQVDQLRMQGQSVEAALRMERQAASEEKRKLAQLQVAYHQLFQEYDNHIKSSVVGSERKRGMQLEDLKQQLQQAEEALVAKQEVIDKLKEEAEQHKIVMETVPV
notes: also called C-terminal truncation
Consider B1, for which the binding result is reported as “binds”.

B2: recombinant ΔN-IKK-γ (134-419) (other, not shown: small tags and cut ends)
chain: QMAEDKASVKAQVTSLLGELQESQSRLEAATKECQALEGRARAASEQARQLESEREALQQQHSVQVDQLRMQGQSVEAALRMERQAASEEKRKLAQLQVAYHQLFQEYDNHIKSSVVGSERKRGMQLEDLKQQLQQAEEALVAKQEVIDKLKEEAEQHKIVMETVPVLKAQADIYKADFQAERQAREKLAEKKELLQEQLEQLQREYSKLKASCQESARIEDMRKRHVEVSQAPLPPAPAYLSSPLALPSQRRSPPEEPPDFCCPKCQYQAPDMDTLQIHVMECIE
notes: also called N-terminal truncation
As to B2, the binding result was “binds”.

The record behind these values is patent US7189832 (University of California, dated 2007).
